In publication PMC5310649 (Biochemistry, 2016):

Target: the molecule itself
Test: thin section electron microscopy

B1: FtsZ-mVenus (FtsZ with the YFP variant mVenus fused to the C terminus) (natural protein, E. coli, UniProt P0A9A6 1-383, looked up)
chain: MFEPMELTNDAVIKVIGVGGGGGNAVEHMVRERIEGVEFFAVNTDAQALRKTAVGQTIQIGSGITKGLGAGANPEVGRNAADEDRDALRAALEGADMVFIAAGMGGGTGTGAAPVVAEVAKDLGILTVAVVTKPFNFEGKKRMAFAEQGITELSKHVDSLITIPNDKLLKVLGRGISLLDAFGAANDVLKGAVQGIAELITRPGLMNVDFADVRTVMSEMGYAMMGSGVASGEDRAEEAAEMAISSPLLEDIDLSGARGVLVNITAGFDLRLDEFETVGNTIRAFASDNATVVIGTSLDPDMNDELRVTVVATGIGMDKRPEITLVTNKQVQQPVMDRYQQHGMAPLTQEQKPVAKVVNDNAPQTAKEPDYLDIPAFLRKQAD
binding result: binds
